From publication PMC3799832

Target: full-length talin1 purified from turkey gizzard (turkey)
Assay: electron microscopy single-particle 3D reconstruction

Substance: full-length talin1 purified from turkey gizzard
- stoichiometry N: 2
